For 1 substance, molar excess of competitor for 50 % inhibition results are on record in patent EP0501215B1.

The experiment has as its target CEA (Carcinoembryonic Antigen) (UniProt P06731). As to the kind of experiment: competition ELISA on CEA-coated plates; competitor of murine MAK BW 431/26 (5 ng/ml). In general terms: An ELISA detects its analyte on a solid surface through an enzyme-linked reagent.
Sequence of UniProt P06731 (P06731 35-685 limits assumed): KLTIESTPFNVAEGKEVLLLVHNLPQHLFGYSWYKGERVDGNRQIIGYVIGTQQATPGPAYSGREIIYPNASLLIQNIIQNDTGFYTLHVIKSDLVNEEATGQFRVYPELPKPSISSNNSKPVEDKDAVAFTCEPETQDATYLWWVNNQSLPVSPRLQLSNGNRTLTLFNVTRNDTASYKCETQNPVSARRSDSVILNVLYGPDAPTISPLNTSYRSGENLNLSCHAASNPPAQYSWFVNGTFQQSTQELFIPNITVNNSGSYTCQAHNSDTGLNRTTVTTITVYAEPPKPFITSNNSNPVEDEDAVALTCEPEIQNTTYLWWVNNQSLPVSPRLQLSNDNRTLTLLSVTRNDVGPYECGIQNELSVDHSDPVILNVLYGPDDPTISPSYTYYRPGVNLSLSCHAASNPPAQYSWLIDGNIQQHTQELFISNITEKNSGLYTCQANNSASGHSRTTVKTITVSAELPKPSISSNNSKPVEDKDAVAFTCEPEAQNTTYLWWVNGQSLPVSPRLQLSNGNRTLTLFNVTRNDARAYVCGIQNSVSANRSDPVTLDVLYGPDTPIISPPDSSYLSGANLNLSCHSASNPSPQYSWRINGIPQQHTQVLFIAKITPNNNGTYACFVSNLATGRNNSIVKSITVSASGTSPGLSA

humanized MAK BW 431/26 (antibody) returned a molar excess of competitor for 50 % inhibition of 200 molar excess.
